Among the data in publication PMC10711433, “The forkhead DNA-binding domain binds specific G2-rich RNA sequences” are binding result and binding signal values, retold here.

The target in one series is T1, FOXL2 (Homo sapiens, UniProt P58012 1-376).
T1 sequence: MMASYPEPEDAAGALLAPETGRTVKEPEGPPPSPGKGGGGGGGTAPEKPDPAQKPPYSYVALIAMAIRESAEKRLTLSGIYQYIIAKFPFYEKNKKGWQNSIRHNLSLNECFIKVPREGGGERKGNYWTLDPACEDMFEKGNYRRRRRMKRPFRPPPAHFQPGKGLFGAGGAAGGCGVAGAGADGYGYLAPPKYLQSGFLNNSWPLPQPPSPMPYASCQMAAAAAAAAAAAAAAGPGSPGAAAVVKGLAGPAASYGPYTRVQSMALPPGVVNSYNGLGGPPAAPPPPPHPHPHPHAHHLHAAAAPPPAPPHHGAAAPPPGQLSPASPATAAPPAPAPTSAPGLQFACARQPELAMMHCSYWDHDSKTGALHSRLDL
Briefly: pulldown; 37 C; 10 mM HEPES, 140 mM KCl, 25 mM NaCl, 1 mM MgCl2, 0.1 mM CaCl2; equimolar mix, tRNA. The conditions noted are these: tags: His-SUMO, cleaved.

In the next series the target is T2, FOXL2 C134W (Homo sapiens, UniProt P58012 1-376, C134W).
T2 sequence: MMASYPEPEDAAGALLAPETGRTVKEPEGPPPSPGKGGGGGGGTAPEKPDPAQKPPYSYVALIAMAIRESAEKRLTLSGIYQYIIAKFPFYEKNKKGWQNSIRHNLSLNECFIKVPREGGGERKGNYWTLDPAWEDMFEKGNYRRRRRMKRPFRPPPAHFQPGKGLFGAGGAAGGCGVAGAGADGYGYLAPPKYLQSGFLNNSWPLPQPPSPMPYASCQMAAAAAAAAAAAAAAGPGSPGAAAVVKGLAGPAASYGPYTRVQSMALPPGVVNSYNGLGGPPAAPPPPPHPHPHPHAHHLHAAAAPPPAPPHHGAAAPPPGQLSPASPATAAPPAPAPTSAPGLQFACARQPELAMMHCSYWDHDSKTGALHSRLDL
Described as above. The conditions noted are these: tags: His-SUMO, cleaved.

Series [1] concerns the target T3, FOXL2 wt (recombinant) (UniProt P58012 1-376).
T3 sequence: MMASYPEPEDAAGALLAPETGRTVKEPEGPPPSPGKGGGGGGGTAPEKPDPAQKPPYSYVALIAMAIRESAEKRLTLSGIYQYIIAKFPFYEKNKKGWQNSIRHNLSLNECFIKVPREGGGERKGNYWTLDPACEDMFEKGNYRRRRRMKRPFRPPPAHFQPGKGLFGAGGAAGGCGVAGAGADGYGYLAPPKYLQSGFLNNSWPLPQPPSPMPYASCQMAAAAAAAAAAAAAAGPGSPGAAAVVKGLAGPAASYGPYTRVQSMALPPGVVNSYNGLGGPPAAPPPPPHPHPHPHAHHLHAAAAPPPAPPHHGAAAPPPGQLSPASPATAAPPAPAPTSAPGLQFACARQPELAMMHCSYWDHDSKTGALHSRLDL
In words: pull-down competition + HTS; mixed with RF000/RF002 DNA and scr50 RNA; 10 mM HEPES (pH 7.5), 140 mM KCl, 25 mM NaCl, 1 mM MgCl2, 0.1 mM CaCl2, 0.001% IGEPAL, 100 nM yeast tRNA, 50 nM total aptamers, 37 C, 30 min; Li+ variant: 140 mM LiCl replaces KCl/NaCl. The conditions noted are these: protein: recombinant; tags: His-SUMO tag cleaved; putative two-tier intramolecular G4.

Series [2] deals with T4, FOXL2 C134W (mutFOXL2) (UniProt P58012 1-376, C134W).
T4 sequence: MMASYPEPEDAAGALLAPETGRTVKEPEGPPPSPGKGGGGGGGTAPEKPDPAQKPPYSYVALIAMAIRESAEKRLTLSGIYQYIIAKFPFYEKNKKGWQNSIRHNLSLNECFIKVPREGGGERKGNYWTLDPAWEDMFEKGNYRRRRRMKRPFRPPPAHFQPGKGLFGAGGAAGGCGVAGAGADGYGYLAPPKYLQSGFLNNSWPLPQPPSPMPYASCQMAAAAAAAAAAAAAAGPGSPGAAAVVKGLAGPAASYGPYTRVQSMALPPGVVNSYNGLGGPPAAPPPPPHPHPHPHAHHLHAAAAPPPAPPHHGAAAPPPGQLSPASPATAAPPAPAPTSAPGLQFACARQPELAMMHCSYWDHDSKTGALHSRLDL
Briefly: pull-down competition + HTS; K+/Na+ buffer, tRNA competitor; 10 mM HEPES (pH 7.5), 140 mM KCl, 25 mM NaCl, 1 mM MgCl2, 0.1 mM CaCl2, 0.001% IGEPAL, 100 nM yeast tRNA, 50 nM total aptamers, 37 C, 30 min; Li+ variant: 140 mM LiCl replaces KCl/NaCl. To be noted: protein: recombinant; tags: His-SUMO tag cleaved; putative two-tier intramolecular G4.

For series [3], the target named is T3, FOXL2 wt (recombinant). In words: pull-down competition + HTS; mixed with mutRF001; 10 mM HEPES (pH 7.5), 140 mM KCl, 25 mM NaCl, 1 mM MgCl2, 0.1 mM CaCl2, 0.001% IGEPAL, 100 nM yeast tRNA, 50 nM total aptamers, 37 C, 30 min; Li+ variant: 140 mM LiCl replaces KCl/NaCl. The conditions noted are these: protein: recombinant; tags: His-SUMO tag cleaved; putative two-tier intramolecular G4.

The target of series [4] is T3, FOXL2 wt (recombinant). Briefly: pull-down competition + HTS; K+/Na+ buffer; basically absent; 10 mM HEPES (pH 7.5), 140 mM KCl, 25 mM NaCl, 1 mM MgCl2, 0.1 mM CaCl2, 0.001% IGEPAL, 100 nM yeast tRNA, 50 nM total aptamers, 37 C, 30 min; Li+ variant: 140 mM LiCl replaces KCl/NaCl. To be noted: protein: recombinant; tags: His-SUMO tag cleaved; unable to fold into G4.
The target of series [5] is T4, FOXL2 C134W (mutFOXL2). Described as above. The conditions noted are these: protein: recombinant; tags: His-SUMO tag cleaved; unable to fold into G4.
The target of series [6] is T3, FOXL2 wt (recombinant). In words: pull-down competition + HTS; K+/Na+ buffer, tRNA competitor; 10 mM HEPES (pH 7.5), 140 mM KCl, 25 mM NaCl, 1 mM MgCl2, 0.1 mM CaCl2, 0.001% IGEPAL, 100 nM yeast tRNA, 50 nM total aptamers, 37 C, 30 min; Li+ variant: 140 mM LiCl replaces KCl/NaCl. To be noted: protein: recombinant; tags: His-SUMO tag cleaved; putative two-tier intramolecular G4.

For series [7], the target named is T3, FOXL2 wt (recombinant). In words: pull-down competition + HTS; 140 mM LiCl, no K+/Na+; 10 mM HEPES (pH 7.5), 140 mM KCl, 25 mM NaCl, 1 mM MgCl2, 0.1 mM CaCl2, 0.001% IGEPAL, 100 nM yeast tRNA, 50 nM total aptamers, 37 C, 30 min; Li+ variant: 140 mM LiCl replaces KCl/NaCl. To be noted: protein: recombinant; tags: His-SUMO tag cleaved; putative two-tier intramolecular G4.

B1: RF002 DNA (ssDNA)
DNA: GGGAGAGTATCCGTTGAGGCTGATCGGACTTTGGTGGTTGGAGGACGGATGGACGGAGGTTTATTAGGCTCGCAGATCGGAAGAGCGTCGTGTAGG
Take B1: in the series with FOXL2, the binding result is “no binding”.

B2: RF000 DNA (ssDNA)
DNA: GGGAGAGTATCCGTTGAGGCTGAGAGGTATTAAGAGGCGGAGGCGGAAGGATGGCGGAGGACCGACAGAGAAGAGATCGGAAGAGCGTCGTGTAGG
As to B2, the binding result in the series with FOXL2 is “no binding”.

B3: RF004 (ssRNA)
RNA: GGGAGAGUAUCCGUUGAGGCUGAAUCUGCGACUGGCUGGAGGUGGACGGAUGGCUGGAGGCGAAAUUGGCUUAAGAUCGGAAGAGCGUCGUGUAGG
B3: the binding result with FOXL2 C134W and in the series with FOXL2 was “binds” throughout.

B4: RF004 RNA (structured_RNA)
RNA: AUCUGCGACUGGCUGGAGGUGGACGGAUGGCUGGAGGCGAAAUUGGCUUA
As to B4, the binding result with FOXL2 wt (recombinant) [1] and in the series with FOXL2 C134W (mutFOXL2) [2] was “binds” throughout.

B5: scr50 (ssRNA)
RNA: GGGAGAGUAUCCGUUGAGGCUGAGGGACACUCGCUGUUUUCGAAAUUACCCUUUAUGCGCGGGUAUUGAACCAAGAUCGGAAGAGCGUCGUGUAGG
Turning to B5, the binding result in the series with FOXL2 C134W and with FOXL2 was “no binding” each time.

B6: RF004 DNA (ssDNA)
DNA: GGGAGAGTATCCGTTGAGGCTGAATCTGCGACTGGCTGGAGGTGGACGGATGGCTGGAGGCGAAATTGGCTTAAGATCGGAAGAGCGTCGTGTAGG
B6: the binding result in the series with FOXL2 is on record as “no binding”.

B7: mutRF001 (ssRNA)
RNA: GGGAGAGUAUCCGUUGAGGCUGACGUCAUUUGAGUGAGUGAGCGAGAGAGAGUGCGUGAGAGACGAGAGCGUGAGAUCGGAAGAGCGUCGUGUAGG
For the molecule B7, the binding result with FOXL2 was “no binding”.

B8: RF002 (ssRNA)
RNA: GGGAGAGUAUCCGUUGAGGCUGAUCGGACUUUGGUGGUUGGAGGACGGAUGGACGGAGGUUUAUUAGGCUCGCAGAUCGGAAGAGCGUCGUGUAGG
In the case of B8, the binding result with FOXL2 C134W and with FOXL2 was “binds” throughout.

B9: RF001 DNA (ssDNA)
DNA: GGGAGAGTATCCGTTGAGGCTGACGTCATTTGGTGGATGGCGGAAGGAGGCGGAGGACGGGAAATTCTGGAAAAGATCGGAAGAGCGTCGTGTAGG
Regarding B9, the binding result with FOXL2 is recorded as “no binding”.

B10: RF001 RNA (structured_RNA)
RNA: CGUCAUUUGGUGGAUGGCGGAAGGAGGCGGAGGACGGGAAAUUCUGGAAA
On to B10, for which the binding signal with FOXL2 wt (recombinant) [3] is > 10 fold enrichment RF001/mutRF001 vs no-protein control. Further, the binding result in the series with FOXL2 C134W (mutFOXL2) [2] is given as “binds”.

B11: RF001 (ssRNA)
RNA: GGGAGAGUAUCCGUUGAGGCUGACGUCAUUUGGUGGAUGGCGGAAGGAGGCGGAGGACGGGAAAUUCUGGAAAAGAUCGGAAGAGCGUCGUGUAGG
As for B11, the binding result with FOXL2 C134W and with FOXL2 was “binds” throughout.

B12: scr50 RNA (ssRNA)
RNA: GGGACACUCGCUGUUUUCGAAAUUACCCUUUAUGCGCGGGUAUUGAACCA
For the molecule B12, the binding result with FOXL2 wt (recombinant) [4] and in the series with FOXL2 C134W (mutFOXL2) [5] was “no binding” each time.

B13: RF000 (ssRNA)
RNA: GGGAGAGUAUCCGUUGAGGCUGAGAGGUAUUAAGAGGCGGAGGCGGAAGGAUGGCGGAGGACCGACAGAGAAGAGAUCGGAAGAGCGUCGUGUAGG
On to B13, for which the binding result with FOXL2 C134W and with FOXL2 was “binds” in each case.

B14: RF000 RNA (structured_RNA)
RNA: GAGGUAUUAAGAGGCGGAGGCGGAAGGAUGGCGGAGGACCGACAGAGAAG
Regarding B14, the binding result with FOXL2 wt (recombinant) [6] and with FOXL2 C134W (mutFOXL2) [2] was “binds” throughout.

B15: RF002 RNA (structured_RNA)
RNA: UCGGACUUUGGUGGUUGGAGGACGGAUGGACGGAGGUUUAUUAGGCUCGC
Take B15: the binding result with FOXL2 wt (recombinant) [7] and in the series with FOXL2 C134W (mutFOXL2) [2] was “binds” each time.
